Laboratory results from patent EP3741773A1.

Target: cetuximab
Assay: SPR, immobilized cetuximab IgG (Figure 12)

Sequence of avidin saturated with biotinylated meditope (P02701 25-152): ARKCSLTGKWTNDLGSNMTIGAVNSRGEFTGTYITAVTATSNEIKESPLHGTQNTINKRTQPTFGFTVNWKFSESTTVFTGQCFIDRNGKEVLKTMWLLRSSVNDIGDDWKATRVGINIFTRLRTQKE

fold reduction of the off-rate against the monovalent meditope: > 36 fold
Substance: avidin saturated with biotinylated meditope (from UniProt P02701 25-152)
